Source: publication PMC9926306

Molecular target: ABCA1 (mouse (endogenous in J774)) (UniProt P41233)
Chain of UniProt P41233 (P41233 whole entry): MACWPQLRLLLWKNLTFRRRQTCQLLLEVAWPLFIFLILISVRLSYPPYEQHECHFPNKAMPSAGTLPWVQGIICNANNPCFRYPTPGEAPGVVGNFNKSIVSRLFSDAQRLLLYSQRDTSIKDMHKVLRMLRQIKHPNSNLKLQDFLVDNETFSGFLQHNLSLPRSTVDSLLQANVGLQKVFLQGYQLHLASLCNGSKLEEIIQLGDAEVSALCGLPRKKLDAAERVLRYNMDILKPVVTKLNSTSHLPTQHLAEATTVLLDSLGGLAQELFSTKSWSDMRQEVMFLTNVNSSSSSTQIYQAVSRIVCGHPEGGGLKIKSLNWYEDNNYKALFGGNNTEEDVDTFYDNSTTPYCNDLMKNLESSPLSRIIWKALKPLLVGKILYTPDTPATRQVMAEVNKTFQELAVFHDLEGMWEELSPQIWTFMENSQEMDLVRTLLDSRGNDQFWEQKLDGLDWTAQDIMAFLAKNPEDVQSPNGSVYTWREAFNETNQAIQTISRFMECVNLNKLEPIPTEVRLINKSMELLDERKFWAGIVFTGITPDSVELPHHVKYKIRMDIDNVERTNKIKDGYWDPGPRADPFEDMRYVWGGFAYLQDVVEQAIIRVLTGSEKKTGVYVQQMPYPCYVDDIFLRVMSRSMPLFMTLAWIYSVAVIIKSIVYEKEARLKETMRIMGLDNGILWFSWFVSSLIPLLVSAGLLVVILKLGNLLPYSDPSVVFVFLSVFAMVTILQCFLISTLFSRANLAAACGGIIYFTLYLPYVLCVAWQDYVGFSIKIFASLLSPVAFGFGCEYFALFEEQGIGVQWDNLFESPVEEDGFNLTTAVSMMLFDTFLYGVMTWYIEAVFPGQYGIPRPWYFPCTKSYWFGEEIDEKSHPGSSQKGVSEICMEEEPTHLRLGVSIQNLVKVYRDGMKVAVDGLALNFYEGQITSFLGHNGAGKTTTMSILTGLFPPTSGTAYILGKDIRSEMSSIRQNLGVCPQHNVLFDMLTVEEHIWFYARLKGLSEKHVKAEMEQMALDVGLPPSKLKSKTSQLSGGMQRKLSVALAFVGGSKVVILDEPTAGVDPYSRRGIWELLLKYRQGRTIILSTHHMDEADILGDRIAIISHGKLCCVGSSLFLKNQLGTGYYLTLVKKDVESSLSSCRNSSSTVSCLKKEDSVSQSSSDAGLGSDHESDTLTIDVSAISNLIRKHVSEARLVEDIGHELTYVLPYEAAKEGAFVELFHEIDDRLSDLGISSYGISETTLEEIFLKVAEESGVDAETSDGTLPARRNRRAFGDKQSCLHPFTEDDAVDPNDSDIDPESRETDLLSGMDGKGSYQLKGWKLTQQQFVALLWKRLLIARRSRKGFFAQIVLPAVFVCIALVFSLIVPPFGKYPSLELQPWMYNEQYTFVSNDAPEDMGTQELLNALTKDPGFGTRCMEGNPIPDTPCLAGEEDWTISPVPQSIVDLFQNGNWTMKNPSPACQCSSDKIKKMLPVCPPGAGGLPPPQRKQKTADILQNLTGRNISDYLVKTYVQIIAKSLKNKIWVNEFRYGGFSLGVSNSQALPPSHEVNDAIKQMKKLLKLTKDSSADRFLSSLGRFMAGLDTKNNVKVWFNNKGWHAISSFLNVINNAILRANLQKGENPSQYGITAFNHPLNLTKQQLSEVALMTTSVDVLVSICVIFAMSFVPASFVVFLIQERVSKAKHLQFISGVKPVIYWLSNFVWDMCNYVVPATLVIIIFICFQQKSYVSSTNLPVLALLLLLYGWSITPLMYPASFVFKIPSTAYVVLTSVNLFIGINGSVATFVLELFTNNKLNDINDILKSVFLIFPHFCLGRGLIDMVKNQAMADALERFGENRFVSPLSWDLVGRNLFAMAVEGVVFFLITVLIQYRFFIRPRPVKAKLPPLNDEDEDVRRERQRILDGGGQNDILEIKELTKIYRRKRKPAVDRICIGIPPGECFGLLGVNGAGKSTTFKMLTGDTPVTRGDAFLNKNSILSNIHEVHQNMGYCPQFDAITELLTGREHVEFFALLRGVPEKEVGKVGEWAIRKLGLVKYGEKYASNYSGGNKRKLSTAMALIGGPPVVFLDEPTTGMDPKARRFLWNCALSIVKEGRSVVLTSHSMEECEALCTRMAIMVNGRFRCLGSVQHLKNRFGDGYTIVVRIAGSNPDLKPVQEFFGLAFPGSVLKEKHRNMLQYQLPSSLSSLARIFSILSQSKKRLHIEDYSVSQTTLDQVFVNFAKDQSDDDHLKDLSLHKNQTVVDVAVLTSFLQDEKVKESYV

WT apoA-I (from UniProt P02647 19-267) (natural protein)
percent BODIPY-cholesterol efflux from J774 cells treated with cAMP (ABCA1 upregulated), apoA-I 10 ug/ml, 6 and 24 h; value after 24 h: 28.7%

apoA-I[K107del] (natural protein)
percent BODIPY-cholesterol efflux from J774 cells treated with cAMP (ABCA1 upregulated), apoA-I 10 ug/ml, 6 and 24 h; value after 24 h: 27.9%
